± gives the uncertainty stated by the source.
Assay: protein stability index of a GFP-peptide fusion (yeast GPS) (PSI 1-4); higher = more stable; sorted into four equal gates, so the index is relative within each strain
Details: doa10∆
Method in brief: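 Peptides tiling yeast proteins in 17-residue segments were fused downstream of GFP, with Cherry expressed from the same plasmid. As a pooled library in yeast, mid-log cultures grown in leucine-free medium were sorted into four equal gates by GFP/Cherry fluorescence ratio. Gate plasmids were PCR-amplified and Illumina-sequenced, and barcodes linked reads to strains. Each peptide received a protein stability index equal to the sum of each gate's read frequency times its gate number.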

Row | Sequence | protein stability index
1 | HVRKVKLLKQPKFDVGA [RPS1A] | 2.21 ± 0.062
2 | HVSHEAMREVNDEKRVK [YIL149C/MLP2] | 2.74 ± 0.097
3 | HWSVSFQAHEITSFLLS [NAS6] | 2.28 ± 0.056
4 | HYKQQIAVLIELLEERF [YCS4] | 2.01 ± 0.07
5 | HYKVPTDTSTTATAATN [MED6] | 2.28 ± 0.054
6 | IADLASLEQLLGMMYEQ [YCS4] | 3.18 ± 0.1
7 | IAEIKKTPLLKQYLSAS [RPL6A] | 2.65 ± 0.063
8 | IAFLVGLVNPKTVQSMT [SWI3] | 2.46 ± 0.068
9 | IANDNVITPHFITNVQS [SWI1] | 2.14 ± 0.082
10 | IANFSRAGKYELVKSYS [YJR042W/NUP85] | 2.25 ± 0.094
11 | IASKMSLAPEADLDSLI [RPT3] | 2.62 ± 0.1
12 | ICSCVNRGVKLEIVYGY [RPP1] | 2.38 ± 0.1
13 | IDALGTEFSKNDLEVGV [SCL1] | 2.67 ± 0.097
14 | IDDFTTRLWGSVYYHKG [SNU114] | 3.06 ± 0.24
15 | IDDKGVLMERKDERGEG [ITC1] | 3 ± 0.21
16 | IDDLIHEIITVGPHFKQ [RPL7A] | 1.87 ± 0.1
17 | IDEVDSIATKRFDAQTG [RPT3] | 3.12 ± 0.12
18 | IDGPKAGVPRQAINLGQ [RPL14A] | 3.58 ± 0.14
19 | IDGSTSHEERIEAIDEY [ISW2] | 3.26 ± 0.079
20 | IDMESDVEDDDKETQLK [POP7] | 1.67 ± 0.054
21 | IDNGTGRTGNGNMGITT [MED6] | 2.92 ± 0.12
22 | IDNLESYAGISTDKLVQ [SIR2] | 2.9 ± 0.057
23 | IDSPELLSLISTTAALQ [RPN7] | 2.23 ± 0.04
24 | IDTDLFGAPNNPNSTAI [YGL172W/NUP49] | 2.8 ± 0.075
25 | IDTLLYLMTYPQQPMVK [RET1] | 1.52 ± 0.097
26 | IDYHKTAKETKMLMNLH [RPN11] | 2.5 ± 0.061

Row | Sequence | protein stability index
27 | IEATDLGNIASSFYINH [BRR2] | 3 ± 0.085
28 | IEDLWQFLYEKHYKNIP [RPC82] | 2.23 ± 0.088
29 | IEIDYTVRVDKASTYGE [SNF12] | 1.68 ± 0.08
30 | IELDQVLNMLYWVPDWD [RPO21] | 2.84 ± 0.095
31 | IELLSLDDDSIVNHEQD [SRB4] | 2.9 ± 0.1
32 | IELVVTEKEEAVAKAAE [RPL17A] | 3.41 ± 0.064
33 | IEQGIPKHSYLSGNPLT [SIR4] | 2.86 ± 0.07
34 | IFEAISLSDELNLDEIV [YJL039C/NUP192] | 2.76 ± 0.067
35 | IFEKELMYQIKKECALL [SRB4] | 2.87 ± 0.28
36 | IFISSDHEFVLISLIMT [YMR129W/POM152] | 1.3 ± 0.13
37 | IFKDKEKLVSDLRLIKV [SMC1] | 3.25 ± 0.26
38 | IFNDILAHVDQIVDIRN [YJL039C/NUP192] | 2.83 ± 0.1
39 | IFNFDQLVEITEQIKMR [SRB8] | 1.59 ± 0.1
40 | IFSLLTGYPDEPPAGVA [CYT1] | 2.87 ± 0.18
41 | IGIDPPRGVLLYGPPGT [RPT3] | 3.04 ± 0.088
42 | IGIMASDGIVLAAERKV [PRE9] | 2.79 ± 0.29
43 | IGQLMAFDKHMNLVLNE [SMB1] | 2.04 ± 0.15
44 | IGSGAMSPLECRNILGV [RPP1] | 1.93 ± 0.03
45 | IGTGEHIHDLEKFSPKS [SRP54] | 2.33 ± 0.067
46 | IGTHHAGLTRSDRSLSE [BRR2] | 2.2 ± 0.11
47 | IGVRCYEAYPNTSLPPS [FAS1] | 2.29 ± 0.036
48 | IHIDALELAGMDALYEK [SIR3] | 2.97 ± 0.1
49 | IHKQIVIEMKRCFENLQ [UBP6] | 2.75 ± 0.097
50 | IHPIPSVTVSQGNYVTE [YMR129W/POM152] | 2.21 ± 0.055
51 | IHQILLPTNPTLDKPNA [CSE2] | 2.56 ± 0.039
52 | IIDGPKALILAPTRELV [PRP28] | 1.59 ± 0.062

Row | Sequence | protein stability index
53 | IIDVGTHHTDIIPIVDY [ARP9] | 2.41 ± 0.088
54 | IIHVLTTMFENTGWSCS [RGR1] | 2.16 ± 0.054
55 | IIKANQLILSDVDPEFY [RET1] | 1.51 ± 0.094
56 | IIKERALLSKVKWVHMI [SNF2] | 1.37 ± 0.059
57 | IILHFANFGEILEDFRV [YMR153W/NUP53] | 2.7 ± 0.1
58 | IIPIVDYAQLDHLVSSI [ARP9] | 2.13 ± 0.05
59 | IIQGRKNFDMLNSMEKD [PCI8] | 2.63 ± 0.083
60 | IIQNAQRDAVTLFCCLL [RPO21] | 2.88 ± 0.053
61 | IIRLLPINLENNDGSYG [SRB8] | 1.7 ± 0.064
62 | IIVAGYDDKNKGEVYTI [PRE3] | 3 ± 0.083
63 | IIVQYLTKFRQKLMQLV [RGR1] | 2.65 ± 0.089
64 | IKEDIKKQPSILVGGTL [SNF2] | 1.93 ± 0.084
65 | IKEELTKLIISGQLNFE [PCI8] | 3.29 ± 0.15
66 | IKFGGLIIQKIPSLQNN [ECM29] | 1.83 ± 0.066
67 | IKFKKCDGDTVWDKFAV [SSN2] | 3 ± 0.052
68 | IKFLLTFIDKERHQKQL [YCS4] | 1.7 ± 0.18
69 | IKLNGSTLLCTDLESKS [SNU114] | 2.67 ± 0.06
70 | IKMQRQFSQLNDPNAAV [MED6] | 3.01 ± 0.07
71 | IKNVIVSNRVAAPARAG [RPP0] | 1.82 ± 0.13
72 | IKQDIPIVIIFRALGII [RPB2] | 1.61 ± 0.05
73 | IKQTSDESTIKRIKPNT [ECM29] | 3 ± 0.073
74 | IKTFFTQKDSARVSPRN [YAR002W/NUP60] | 3.22 ± 0.097
75 | IKTKQMSLKKCQEEVST [SMC2] | 2.48 ± 0.098
76 | ILATNSLRILAKLSERS [YJL039C/NUP192] | 2.39 ± 0.062

From the supplement of paper PMC9732359
